From patent US20210095028A1 (NANJING LEGEND BIOTECH, published 2021)

Experiments:
[1] = biological target: T1, cynomolgus TIGIT over-expressed on CHO-K1 cells (cynomolgus, UniProt A0A7N9I9V4 89-312); assay: FACS, CHO-K1 cells over-expressing cynomolgus TIGIT
T1 construct: whole, on cells; also called CHO-K1/cynomolgus TIGIT cells
Experimental: (§1) Binding affinities of the chimeric anti-human TIGIT monoclonal antibodies and the humanized anti-human TIGIT monoclonal antibodies to human or cynomolgus TIGIT over-expressed on CHO-K1 cells were determined using a fluorescence-activated cell sorting (FACS)-based assay. […] The mixture was equilibrated for 30 minutes at room temperature and washed three times with FACS buffer (PBS containing 1% BSA). iFluor labeled goat anti-mouse IgG as the secondary antibody was added and incubated at room temperature for 45 min. Finally, the cells were washed 3 time with PBS, and the signal was read by FACS BD Calibur. Data was analyzed with PRISM™ (GraphPad Software, San Diego, Calif.) using non-linear regression and EC₅₀ values were calculated.

[2] = biological target: T2, human TIGIT over-expressed on cells (human, UniProt Q495A1 22-244); assay: FACS, CHO-K1 cells over-expressing human TIGIT
T2 construct: also called CHO-K1/human TIGIT cells; CHO cells expressing human TIGIT
T2 sequence: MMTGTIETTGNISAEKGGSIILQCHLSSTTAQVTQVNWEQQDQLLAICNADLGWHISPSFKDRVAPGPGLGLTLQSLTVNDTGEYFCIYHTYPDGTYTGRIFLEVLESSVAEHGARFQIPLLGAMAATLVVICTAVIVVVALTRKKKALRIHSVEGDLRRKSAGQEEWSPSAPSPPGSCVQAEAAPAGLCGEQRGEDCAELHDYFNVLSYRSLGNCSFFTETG
Experimental: as §1

[3] = biological target: T2, human TIGIT over-expressed on cells; assay: competition FACS, CHO cells expressing human TIGIT; competitor PVR recombinant protein (column headed EC50, text says IC50)
Experimental: (§2) To assess the competitive binding on human TIGIT between the chimeric anti-human TIGIT monoclonal antibodies or the humanized anti-human TIGIT monoclonal antibodies and PVR, the chimeric anti-human TIGIT monoclonal antibody or the humanized anti-human TIGIT monoclonal antibody samples were prepared (starting at 300 nM, ≤3-fold serial dilution with 10 concentrations). CHO cells expressing human TIGIT were dissociated from adherent culture flasks and mixed with varying concentrations of each chimeric anti-human TIGIT monoclonal antibody or the humanized anti-human TIGIT monoclonal antibody and 5 μg/ml […] fusion protein having a biotin label. The mixture was equilibrated for 30 minutes at room temperature and washed three times with FACS buffer (PBS containing 1% BSA). PE/Cy5 Streptavidin secondary antibody was then added to the mixtures and incubated for 15 minutes at room temperature. Subsequently, the cells were washed with FACS buffer and analyzed by flow cytometry. Data was analyzed with PRISM™ (GraphPad Software, San Diego, Calif.) using non-linear regression, and IC₅₀ values were calculated (FIG. 7 and Table 13).

[4] = biological target: T2, human TIGIT over-expressed on cells; assay: competition FACS, CHO cells expressing human TIGIT; competitor PVR recombinant protein
Experimental: as §2

[5] = biological target: T2, human TIGIT over-expressed on cells; assay: cell-based or functional assay
[6] = biological target: T3, Human TIGIT protein with HIS tag (human, UniProt Q495A1 22-141); assay: SPR Biacore T200; antibody Fc-captured, TIGIT-His analyte
T3 construct: A soluble analyte is probably only the extracellular part; also called human TIGIT recombinant protein; not shown: HIS tag
T3 sequence: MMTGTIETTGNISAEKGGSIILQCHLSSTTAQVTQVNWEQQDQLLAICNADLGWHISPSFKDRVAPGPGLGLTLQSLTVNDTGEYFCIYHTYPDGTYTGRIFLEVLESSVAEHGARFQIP
Experimental: Binding kinetics of the chimeric anti-human TIGIT monoclonal antibodies and the humanized anti-human TIGIT monoclonal antibodies to human TIGIT were determined using a Surface Plasmon Resonance (SPR) biosensor, BIACORE® T200 (GE Healthcare). Different concentrations of the chimeric anti-human TIGIT monoclonal antibodies or humanized anti-human TIGIT monoclonal antibodies were prepared starting at 50 nM with a 3-fold serial dilution. Each chimeric anti-human TIGIT monoclonal antibody or each humanized anti-human TIGIT monoclonal antibody was immobilized on the sensor chip through the Fc capture method. Human TIGIT protein with a HIS tag was used as the analyte. The dissociation (kd) and association (kₐ) rate constants were obtained using the BIACORE® T200 evaluation software. The apparent equilibrium dissociation constants (KD) were calculated from the ratio of kd over kₐ.

T1 sequence (A0A7N9I9V4 entry or part of it): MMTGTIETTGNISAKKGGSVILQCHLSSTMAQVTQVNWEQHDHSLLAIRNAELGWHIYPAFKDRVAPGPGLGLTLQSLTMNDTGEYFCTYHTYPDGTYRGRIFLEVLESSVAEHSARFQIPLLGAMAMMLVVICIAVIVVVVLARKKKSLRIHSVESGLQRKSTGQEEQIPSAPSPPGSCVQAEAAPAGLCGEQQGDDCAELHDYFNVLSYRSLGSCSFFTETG

B1: 100C4E7D11VH1_VL1 (antibody, V domains shown)
VH: EVQLVESGGGLVKPGGSLRLSCAASGFTFSFYTMSWVRQAPGKGLEWVSTISSGGGSTYYSDSVKGRFTISRDNAKNSLYLQMNSLRAEDTAVYYCARSLPVDYWGQGTTVTVSS
VL: EIVLTQSPGTLSLSPGERATLSCTASSSVSSTYLHWYQQKPGQAPRLLIYSTSNLASGIPDRFSGSGSGTDFTLTISRLEPEDFAVYYCHLYHHSPYTFGGGTKVEIK
notes: Humanized antibody, variable domains fused with the constant region of human IgG1; also called 100C4VH1_VL1
[1]
  Bottom (best-fit): 2830
  EC50: 2.85 nM
  Top (best-fit): 29800
[2]
  Bottom (best-fit): 4110
  EC50: 1.15 nM
  Top (best-fit): 25200
[3]
  IC50: 1.29 nM
[4]
  Bottom (best-fit): 150
  Top (best-fit): 755
[5]
  IL-2 secretion in T cell activation, Bottom (best-fit): 217
  IL-2 secretion in T cell activation, EC50: 5.21 nM
  IL-2 secretion in T cell activation, Top (best-fit): 435
[6]
  Kd: 0.57 nM
  koff: 0.00035 s⁻¹
  kon: 610000 M⁻¹ s⁻¹

B2: 64G1E9B4 chimeric (antibody, V domains shown)
VH: EVQLQQSGPELVKPGASVKISCKTSGYTFTEHVIHWVKQSHGKSLEWIGGFNPNHDGTIYNQIFRGKATLTVDKSSSTAYMELRSLTSEDSAVYFCTRAAKLLFAMDYWGQGTSVTVSS
VL: DIVMTQSHKFMSTSIGDRVSITCKASQHVSNAVVWYQQKPGQSPKLLIYSPSYRFTGVPDRFTGSGSGTDFTFTISSVQAEDLAVYYCQQHYSTPWTFGGGTKLEIK
notes: also called 64G1 Chimeric
[1]
  Bottom (best-fit): 3920
  EC50: 1.33 nM
  Top (best-fit): 25600
[2]
  Bottom (best-fit): 3600
  EC50: 0.47 nM
  Top (best-fit): 23400
[3]
  IC50: 0.51 nM
[4]
  Bottom (best-fit): 197
  Top (best-fit): 772
[5]
  IL-2 secretion in T cell activation, Bottom (best-fit): 204
  IL-2 secretion in T cell activation, EC50: 0.66 nM
  IL-2 secretion in T cell activation, Top (best-fit): 462
[6]
  Kd: 0.07 nM
  koff: 6.4e-05 s⁻¹
  kon: 910000 M⁻¹ s⁻¹

B3: 100C4E7D11 chimeric (antibody, V domains shown)
VH: EVMLVESGGGLVKPGGSLKLSCAASGFTFSFYTMSWVRQTPEKRLEWVATISSGGGSTYYSDSVKGRFTISRDNAKNNLYLQMTSLRSEDTALYYCSRSLPVDYWGQGTTLTVSS
VL: QIVLTQSPAIMSASLGERVTMTCTASSSVSSTYLHWYQQKPGSSPKLWIYSTSNLASGVPARFSGSGSGTSYSLTISSMEAEDAATYYCHLYHHSPYTFGGGTKLEIK
notes: also called 100C4 Chimeric
[1]
  Bottom (best-fit): 4880
  EC50: 1.03 nM
  Top (best-fit): 23700
[2]
  Bottom (best-fit): 4160
  EC50: 0.58 nM
  Top (best-fit): 25600
[3]
  IC50: 0.49 nM
[4]
  Bottom (best-fit): 170
  Top (best-fit): 678
[5]
  IL-2 secretion in T cell activation, Bottom (best-fit): 247
  IL-2 secretion in T cell activation, EC50: 2.14 nM
  IL-2 secretion in T cell activation, Top (best-fit): 419
[6]
  Kd: 0.17 nM
  koff: 0.00016 s⁻¹
  kon: 910000 M⁻¹ s⁻¹

B4: 64G1E9B4VH1_VL1.M1 (antibody, human IgG1, V domains shown)
VH: EVQLVQSGAEVKKPGSSVKVSCKASGYTFTEHVIHWVRQAPGQGLEWMGGFNPNHDGTIYNQIFRGRVTITADKSTSTAYMELSSLRSEDTAVYYCARAAKLLFAMDYWGQGTTVTVSS
VL: DIQMTQSPSSLSASVGDRVTITCRASQHVSNAVVWYQQKPGKAPKLLIYSPSYRFTGVPSRFSGSGSGTDFTLTISSLQPEDFATYYCQQHYSTPWTFGGGTKVEIK
notes: Humanized antibody, variable domains fused with the constant region of human IgG1; also called 64G1VH1_VL1.M1
[1]
  Bottom (best-fit): 3010
  EC50: 1.65 nM
  Top (best-fit): 24700
[2]
  Bottom (best-fit): 3190
  EC50: 0.89 nM
  Top (best-fit): 22900
[3]
  IC50: 0.79 nM
[4]
  Bottom (best-fit): 139
  Top (best-fit): 820
[5]
  IL-2 secretion in T cell activation, Bottom (best-fit): 182
  IL-2 secretion in T cell activation, EC50: 1.27 nM
  IL-2 secretion in T cell activation, Top (best-fit): 508
[6]
  Kd: 0.15 nM
  koff: 8.8e-05 s⁻¹
  kon: 590000 M⁻¹ s⁻¹

B5: 64G1E9B4VH1.M1_VL1.M1 (antibody, human IgG1, V domains shown)
VH: EVQLVQSGAEVKKPGSSVKVSCKASGYTFTEHVIHWVRQAPGQGLEWMGGFNPNHGGTIYNQIFRGRVTITADKSTSTAYMELSSLRSEDTAVYYCARAAKLLFAMDYWGQGTTVTVSS
VL: DIQMTQSPSSLSASVGDRVTITCRASQHVSNAVVWYQQKPGKAPKLLIYSPSYRFTGVPSRFSGSGSGTDFTLTISSLQPEDFATYYCQQHYSTPWTFGGGTKVEIK
notes: Humanized antibody, variable domains fused with the constant region of human IgG1; also called 64G1VH1.M1_VL1.M1
[1]
  Bottom (best-fit): 5530
  EC50: 0.91 nM
  Top (best-fit): 29200
[2]
  Bottom (best-fit): 1530
  EC50: 0.43 nM
  Top (best-fit): 24700
[3]
  IC50: 0.35 nM
[4]
  Bottom (best-fit): 201
  Top (best-fit): 508
[5]
  IL-2 secretion in T cell activation, Bottom (best-fit): 209
  IL-2 secretion in T cell activation, EC50: 0.63 nM
  IL-2 secretion in T cell activation, Top (best-fit): 467
[6]
  Kd: 0.17 nM
  koff: 0.0001 s⁻¹
  kon: 630000 M⁻¹ s⁻¹
